Article PMC3328432 (PLoS Biology, 2012)

B1: C-terminal cargo-binding segment of human Pex5p (residues 315-639) (domain or fragment)
chain: not shown
notes: Peroxisomal import receptor Pex5p, human, residues 315-639 (seven TPR segments and C-terminal helical bundle); In the functional rows the receptor was the endogenous Pex5p of human fibroblasts; this molecule stands for it; also called Pex5p(C); Pex5p receptor; source: E. coli BL21(DE3) RIL, purified (Ni-NTA, TEV cleavage, second Ni-NTA, gel filtration); not shown: His6, N-terminal, cleaved; GST, …
B2: human alanine-glyoxylate aminotransferase (AGT), wild type, major allele haplotype (enzyme, UniProt P21549 1-392, looked up)
chain: MASHKLLVTPPKALLKPLSIPNQLLLGPGPSNLPPRIMAAGGLQMIGSMSKDMYQIMDEIKEGIQYVFQTRNPLTLVISGSGHCALEAALVNVLEPGDSFLVGANGIWGQRAVDIGERIGARVHPMTKDPGGHYTLQEVEEGLAQHKPVLLFLTHGESSTGVLQPLDGFGELCHRYKCLLLVDSVASLGGTPLYMDRQGIDILYSGSQKALNAPPGTSLISFSDKAKKKMYSRKTKPFSFYLDIKWLANFWGCDDQPRMYHHTIPVISLYSLRESLALIAEQGLENSWRQHREAAAYLHGRLQALGLQLFVKDPALRLPTVTTVAVPAGYDWRDIVSYVIDHFDIEIMGGLGPSTGKVLRIGLLGCNATRENVDRVTEALRAALQHCPKKKL
modifications: pyridoxal-5'-phosphate (PLP) covalently bound to Lys209
notes: Alanine-glyoxylate aminotransferase (AGT, EC 2.6.1.44), human, major allele haplotype; C-terminus at Leu392; called the complete protein; 86 kDa homodimer; In the import assay in fibroblasts the protein was EGFP-tagged (pEGFP-C1 derived); the functional row uses this molecule; also called AGT(wt); wt-EGFP-AGT (in the import assay); source: E. coli BL21(DE3) RIL, purified (Ni-NTA, TEV cleavage, …)

Columns and labels:
[1] = target: B2; test: ITC; details: both partners purified
[2] = target: B2; test: ITC; details: both partners purified; remark: listed apart in the source
[3] = target: B2; test: SEC-MALS; analytical gel filtration and static light scattering (MiniDAWN); complex formed by mixing purified Pex5p(C) and AGT; single components also run; details: both partners purified
[4] = target: the molecule itself; test: as above

Row | Binder | stoichiometry N [1] | Kd [2] | stoichiometry N [3] | stoichiometry N [4]
1 | B1 | 1 | 3.5 ± 0.4 µM | 1 Pex5p(C) per AGT chain | –
2 | B2 | – | – | – | 2
